Experimental data reported in US20140087995A1 (published 2014).
Numbered stars: 1 amine (or outer) side, 2 acyl side, 3 side chain; on linkers, the order of the positions; unused ones are H or OH. Bridge positions count the residues as written; N and C are the ends. Side chains are listed from the residue outwards. Ends that are not written are not given here. * marks the point of attachment. C20 diacid = O=C(O)CCCCCCCCCCCCCCCCCCC(=O)*; γGlu = O=C(O)[C@H](CCC(=O)[*:2])N[*:1]; AEEA = NCCOCCOCC(=O)O

T1: rat calcitonin receptor (rat, UniProt P32214 25-516)
T1 construct: whole, on cells; Cell membranes of transiently transfected BHK tk'ts 13 cells (Assay VIII); also called rCTR; rCT
T1 sequence (looked up): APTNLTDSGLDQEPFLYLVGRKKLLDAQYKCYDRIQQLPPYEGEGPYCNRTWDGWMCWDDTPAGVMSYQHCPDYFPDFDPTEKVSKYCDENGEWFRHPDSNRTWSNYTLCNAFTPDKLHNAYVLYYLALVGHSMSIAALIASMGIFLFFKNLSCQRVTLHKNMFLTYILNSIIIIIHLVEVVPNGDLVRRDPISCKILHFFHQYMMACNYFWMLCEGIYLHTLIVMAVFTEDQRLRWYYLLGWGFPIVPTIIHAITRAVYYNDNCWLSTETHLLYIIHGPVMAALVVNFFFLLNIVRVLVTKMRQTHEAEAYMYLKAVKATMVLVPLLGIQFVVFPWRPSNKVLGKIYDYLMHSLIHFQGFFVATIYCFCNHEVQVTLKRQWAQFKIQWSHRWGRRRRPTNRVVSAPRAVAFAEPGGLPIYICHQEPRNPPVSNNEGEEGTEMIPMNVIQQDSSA

T2: rat amylin receptor (rat calcitonin receptor + rat RAMP 3) (rat, UniProt P32214 25-516; Q9JJ73 23-147)
T2 construct: whole, on cells; Cell membranes of transiently transfected BHK tk'ts 13 cells (Assay VI); also called rAmylin-R; rat amylin 3(a) receptor
T2 sequence (looked up) 1: T1 sequence (looked up)
T2 sequence (looked up) 2: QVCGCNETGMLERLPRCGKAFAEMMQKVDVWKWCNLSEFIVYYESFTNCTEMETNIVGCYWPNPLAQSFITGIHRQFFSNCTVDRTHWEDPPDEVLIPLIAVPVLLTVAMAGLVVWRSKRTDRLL

B1: N^ε1-[2-[2-[2-[[(4S)-4-carboxy-4-(19-carboxynonadecanoylamino)butanoyl]amino]ethoxy]ethoxy]acetyl]-[His14,Arg17,Pro21,Pro27,Pro31]-h-amylin (peptide)
peptide: K([AEEA-γGlu-C20 diacid])CNTATCATQRLAHFLRHSSPNFGAIPSSTPVGSNTY-NH2
modifications: disulfide 2-7; N-terminus assumed
SMILES: CC[C@H](C)[C@H](NC(=O)[C@H](C)NC(=O)CNC(=O)[C@H](Cc1ccccc1)NC(=O)[C@H](CC(N)=O)NC(=O)[C@@H]1CCCN1C(=O)[C@H](CO)NC(=O)[C@H](CO)NC(=O)[C@H](Cc1c[nH]cn1)NC(=O)[C@H](CCCNC(=N)N)NC(=O)[C@H](CC(C)C)NC(=O)[C@H](Cc1ccccc1)NC(=O)[C@H](Cc1c[nH]cn1)NC(=O)[C@H](C)NC(=O)[C@H](CC(C)C)NC(=O)[C@H](CCCNC(=N)N)NC(=O)[C@H](CCC(N)=O)NC(=O)[C@@H](NC(=O)[C@H](C)NC(=O)[C@@H]1CSSC[C@H](NC(=O)[C@@H](N)CCCCNC(=O)COCCOCCNC(=O)CC[C@H](NC(=O)CCCCCCCCCCCCCCCCCCC(=O)O)C(=O)O)C(=O)N[C@@H](CC(N)=O)C(=O)N[C@@H]([C@@H](C)O)C(=O)N[C@@H](C)C(=O)N[C@@H]([C@@H](C)O)C(=O)N1)[C@@H](C)O)C(=O)N1CCC[C@H]1C(=O)N[C@@H](CO)C(=O)N[C@@H](CO)C(=O)N[C@H](C(=O)N1CCC[C@H]1C(=O)N[C@H](C(=O)NCC(=O)N[C@@H](CO)C(=O)N[C@@H](CC(N)=O)C(=O)N[C@H](C(=O)N[C@@H](Cc1ccc(O)cc1)C(N)=O)[C@@H](C)O)C(C)C)[C@@H](C)O
notes: Acylated analogue of human amylin; also called compound 61
B2: N^ε1-[(4S)-4-carboxy-4-(19-carboxynonadecanoylamino)butanoyl]-[His14,Arg17,Pro21,Pro27,Pro31]-h-amylin (peptide)
peptide: K([γGlu-C20 diacid])CNTATCATQRLAHFLRHSSPNFGAIPSSTPVGSNTY-NH2
modifications: disulfide 2-7; N-terminus assumed
SMILES: CC[C@H](C)[C@H](NC(=O)[C@H](C)NC(=O)CNC(=O)[C@H](Cc1ccccc1)NC(=O)[C@H](CC(N)=O)NC(=O)[C@@H]1CCCN1C(=O)[C@H](CO)NC(=O)[C@H](CO)NC(=O)[C@H](Cc1c[nH]cn1)NC(=O)[C@H](CCCNC(=N)N)NC(=O)[C@H](CC(C)C)NC(=O)[C@H](Cc1ccccc1)NC(=O)[C@H](Cc1c[nH]cn1)NC(=O)[C@H](C)NC(=O)[C@H](CC(C)C)NC(=O)[C@H](CCCNC(=N)N)NC(=O)[C@H](CCC(N)=O)NC(=O)[C@@H](NC(=O)[C@H](C)NC(=O)[C@@H]1CSSC[C@H](NC(=O)[C@@H](N)CCCCNC(=O)CC[C@H](NC(=O)CCCCCCCCCCCCCCCCCCC(=O)O)C(=O)O)C(=O)N[C@@H](CC(N)=O)C(=O)N[C@@H]([C@@H](C)O)C(=O)N[C@@H](C)C(=O)N[C@@H]([C@@H](C)O)C(=O)N1)[C@@H](C)O)C(=O)N1CCC[C@H]1C(=O)N[C@@H](CO)C(=O)N[C@@H](CO)C(=O)N[C@H](C(=O)N1CCC[C@H]1C(=O)N[C@H](C(=O)NCC(=O)N[C@@H](CO)C(=O)N[C@@H](CC(N)=O)C(=O)N[C@H](C(=O)N[C@@H](Cc1ccc(O)cc1)C(N)=O)[C@@H](C)O)C(C)C)[C@@H](C)O
notes: Acylated analogue of human amylin; also called compound 62
B3: N^ε1-[(4S)-4-carboxy-4-(19-carboxynonadecanoylamino)butanoyl]-[Glu14,Arg17,Pro21,Pro27,Arg35]-h-amylin (peptide)
peptide: K([γGlu-C20 diacid])CNTATCATQRLAEFLRHSSPNFGAIPSSTNVGSRTY-NH2
modifications: disulfide 2-7; N-terminus assumed
SMILES: CC[C@H](C)[C@H](NC(=O)[C@H](C)NC(=O)CNC(=O)[C@H](Cc1ccccc1)NC(=O)[C@H](CC(N)=O)NC(=O)[C@@H]1CCCN1C(=O)[C@H](CO)NC(=O)[C@H](CO)NC(=O)[C@H](Cc1c[nH]cn1)NC(=O)[C@H](CCCNC(=N)N)NC(=O)[C@H](CC(C)C)NC(=O)[C@H](Cc1ccccc1)NC(=O)[C@H](CCC(=O)O)NC(=O)[C@H](C)NC(=O)[C@H](CC(C)C)NC(=O)[C@H](CCCNC(=N)N)NC(=O)[C@H](CCC(N)=O)NC(=O)[C@@H](NC(=O)[C@H](C)NC(=O)[C@@H]1CSSC[C@H](NC(=O)[C@@H](N)CCCCNC(=O)CC[C@H](NC(=O)CCCCCCCCCCCCCCCCCCC(=O)O)C(=O)O)C(=O)N[C@@H](CC(N)=O)C(=O)N[C@@H]([C@@H](C)O)C(=O)N[C@@H](C)C(=O)N[C@@H]([C@@H](C)O)C(=O)N1)[C@@H](C)O)C(=O)N1CCC[C@H]1C(=O)N[C@@H](CO)C(=O)N[C@@H](CO)C(=O)N[C@H](C(=O)N[C@@H](CC(N)=O)C(=O)N[C@H](C(=O)NCC(=O)N[C@@H](CO)C(=O)N[C@@H](CCCNC(=N)N)C(=O)N[C@H](C(=O)N[C@@H](Cc1ccc(O)cc1)C(N)=O)[C@@H](C)O)C(C)C)[C@@H](C)O
notes: Acylated analogue of human amylin; also called compound 51
B4: N^ε1-[(4S)-4-carboxy-4-(19-carboxynonadecanoylamino)butanoyl]-[Arg17,Pro21,Pro27,His35]-h-amylin (peptide)
peptide: K([γGlu-C20 diacid])CNTATCATQRLANFLRHSSPNFGAIPSSTNVGSHTY-NH2
modifications: disulfide 2-7; N-terminus assumed
SMILES: CC[C@H](C)[C@H](NC(=O)[C@H](C)NC(=O)CNC(=O)[C@H](Cc1ccccc1)NC(=O)[C@H](CC(N)=O)NC(=O)[C@@H]1CCCN1C(=O)[C@H](CO)NC(=O)[C@H](CO)NC(=O)[C@H](Cc1c[nH]cn1)NC(=O)[C@H](CCCNC(=N)N)NC(=O)[C@H](CC(C)C)NC(=O)[C@H](Cc1ccccc1)NC(=O)[C@H](CC(N)=O)NC(=O)[C@H](C)NC(=O)[C@H](CC(C)C)NC(=O)[C@H](CCCNC(=N)N)NC(=O)[C@H](CCC(N)=O)NC(=O)[C@@H](NC(=O)[C@H](C)NC(=O)[C@@H]1CSSC[C@H](NC(=O)[C@@H](N)CCCCNC(=O)CC[C@H](NC(=O)CCCCCCCCCCCCCCCCCCC(=O)O)C(=O)O)C(=O)N[C@@H](CC(N)=O)C(=O)N[C@@H]([C@@H](C)O)C(=O)N[C@@H](C)C(=O)N[C@@H]([C@@H](C)O)C(=O)N1)[C@@H](C)O)C(=O)N1CCC[C@H]1C(=O)N[C@@H](CO)C(=O)N[C@@H](CO)C(=O)N[C@H](C(=O)N[C@@H](CC(N)=O)C(=O)N[C@H](C(=O)NCC(=O)N[C@@H](CO)C(=O)N[C@@H](Cc1c[nH]cn1)C(=O)N[C@H](C(=O)N[C@@H](Cc1ccc(O)cc1)C(N)=O)[C@@H](C)O)C(C)C)[C@@H](C)O
notes: Acylated analogue of human amylin; also called compound 60

Each binder was assayed against T1, rat calcitonin receptor (assay: SPA competition vs 125I-calcitonin, membranes with rat CTR (Assay VIII)).
In the case of B1, the IC50 is reported as 33.4 nM. B2 gave an IC50 of 18 nM. B3 gave an IC50 of 62 nM. Binder B4 has an IC50 of 26.3 nM.

These binders were tested against T1, rat calcitonin receptor (assay: ratio IC50 rat calcitonin receptor / IC50 rat amylin receptor).
B1 was tested, and the “Ratio rCT/rAmylin binding” value was 39.7. B2 was tested, and the “Ratio rCT/rAmylin binding” value was 42.8. For B3, the “Ratio rCT/rAmylin binding” value was 119. For B4, the “Ratio rCT/rAmylin binding” value was 122.

What follows are binders tested against T2, rat amylin receptor (rat calcitonin …) (assay: SPA competition vs 125I-rat amylin, membranes with rat CTR + rat RAMP3 (Assay VI)).
B1 gave an IC50 of 0.842 nM. Binder B2 has an IC50 of 0.42 nM. In the case of B3, the IC50 is reported as 0.523 nM. B4 showed an IC50 of 0.215 nM.
